Key:
[1] = target: T1, Complement C1q (C1qA/C1qB/C1qC) (UniProt P02745;P02746;P02747 P02745:23-245,P02746:28-253,P02747:29-245); experiment: FP filter; nitrocellulose filter retention; concentration dependent binding; settings: chain copies: 6; label: radiolabel (filter); biotin (pulldown)
Procedure: (§1) To further investigate the interaction of aptamer B1 and B11 with C1q, we performed a filter retention assay. Radioactively labelled B1 and B11 were incubated with increasing concentrations of purified C1q and subsequently passed through a nitrocellulose membrane. The amount of oligonucleotides retained on membrane-immobilized C1q was then quantified by autoradiography. […] Similar results were obtained with B11 and B11rc in an Enzyme-Linked Oligonucleotide Assay (ELONA; see U.S. Pat. No. 5,789,163, which patent is incorporated herein in its entirety). […] As a control, the reverse complement of B11, B11RC, was used (squares).

[2] = target: T1, Complement C1q (C1qA/C1qB/C1qC); experiment: ELONA; estimated; C1q fixed at 0.625 nM; settings: chain copies: 6; label: radiolabel (filter); biotin (pulldown, ELONA)
Procedure: as §1

T1 sequence (P02745 23-245, chain 1 of 3): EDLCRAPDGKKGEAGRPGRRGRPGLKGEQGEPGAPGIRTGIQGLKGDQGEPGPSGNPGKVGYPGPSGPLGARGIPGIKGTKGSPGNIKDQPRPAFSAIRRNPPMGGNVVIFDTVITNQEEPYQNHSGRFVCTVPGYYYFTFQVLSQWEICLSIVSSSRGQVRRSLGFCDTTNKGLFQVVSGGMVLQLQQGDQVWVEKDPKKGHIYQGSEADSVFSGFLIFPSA
T1 sequence (P02746 28-253, chain 2 of 3): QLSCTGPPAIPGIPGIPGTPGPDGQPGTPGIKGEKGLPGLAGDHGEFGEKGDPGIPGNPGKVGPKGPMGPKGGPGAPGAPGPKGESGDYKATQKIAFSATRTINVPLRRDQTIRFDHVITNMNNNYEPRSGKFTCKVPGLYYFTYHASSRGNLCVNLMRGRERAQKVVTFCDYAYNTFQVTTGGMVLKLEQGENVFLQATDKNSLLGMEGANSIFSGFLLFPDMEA
T1 sequence (P02747 29-245, chain 3 of 3): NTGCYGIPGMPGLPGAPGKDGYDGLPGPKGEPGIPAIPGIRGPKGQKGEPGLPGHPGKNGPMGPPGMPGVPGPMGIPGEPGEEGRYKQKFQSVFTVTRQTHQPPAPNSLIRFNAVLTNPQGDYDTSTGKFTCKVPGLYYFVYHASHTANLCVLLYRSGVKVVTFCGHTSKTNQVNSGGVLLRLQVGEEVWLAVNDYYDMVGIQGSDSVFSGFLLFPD

Binder	binding result [1]	Kd [2] [nM]
83S-B1 full (ssDNA) DNA: CTAGCATGACTGCAGTACGTACTATAGAACAATCCACCGCTTTAAATCAACTATCTTACTGTCTCTTATACACATCTGACGCTGCCGACGA	binds	–
83S-B11 full (ssDNA) DNA: CTAGCATGACTGCAGTACGTAACCCAATTCACATACACTCTCACCCCCACTAAACACTGTCTCTTATACACATCTGACGCTGCCGACGA	–	~40

Reference: US20190359983, “TARGETED OLIGONUCLEOTIDES” (CARIS SCIENCE, INC., published 2019)
